Measurements from patent US20150313972A1.
Values joined by “and” are separate entries in the source; they are usually repeats but may differ in a detail not shown here. Equal entries are not always repeated.

Molecular target: M6P receptors on the surface of human fibroblasts (human), P11717
Experiment: cell-based or functional assay

Chain of M6P receptors on the surface of human fibroblasts (human), P11717 (P11717 41-2491): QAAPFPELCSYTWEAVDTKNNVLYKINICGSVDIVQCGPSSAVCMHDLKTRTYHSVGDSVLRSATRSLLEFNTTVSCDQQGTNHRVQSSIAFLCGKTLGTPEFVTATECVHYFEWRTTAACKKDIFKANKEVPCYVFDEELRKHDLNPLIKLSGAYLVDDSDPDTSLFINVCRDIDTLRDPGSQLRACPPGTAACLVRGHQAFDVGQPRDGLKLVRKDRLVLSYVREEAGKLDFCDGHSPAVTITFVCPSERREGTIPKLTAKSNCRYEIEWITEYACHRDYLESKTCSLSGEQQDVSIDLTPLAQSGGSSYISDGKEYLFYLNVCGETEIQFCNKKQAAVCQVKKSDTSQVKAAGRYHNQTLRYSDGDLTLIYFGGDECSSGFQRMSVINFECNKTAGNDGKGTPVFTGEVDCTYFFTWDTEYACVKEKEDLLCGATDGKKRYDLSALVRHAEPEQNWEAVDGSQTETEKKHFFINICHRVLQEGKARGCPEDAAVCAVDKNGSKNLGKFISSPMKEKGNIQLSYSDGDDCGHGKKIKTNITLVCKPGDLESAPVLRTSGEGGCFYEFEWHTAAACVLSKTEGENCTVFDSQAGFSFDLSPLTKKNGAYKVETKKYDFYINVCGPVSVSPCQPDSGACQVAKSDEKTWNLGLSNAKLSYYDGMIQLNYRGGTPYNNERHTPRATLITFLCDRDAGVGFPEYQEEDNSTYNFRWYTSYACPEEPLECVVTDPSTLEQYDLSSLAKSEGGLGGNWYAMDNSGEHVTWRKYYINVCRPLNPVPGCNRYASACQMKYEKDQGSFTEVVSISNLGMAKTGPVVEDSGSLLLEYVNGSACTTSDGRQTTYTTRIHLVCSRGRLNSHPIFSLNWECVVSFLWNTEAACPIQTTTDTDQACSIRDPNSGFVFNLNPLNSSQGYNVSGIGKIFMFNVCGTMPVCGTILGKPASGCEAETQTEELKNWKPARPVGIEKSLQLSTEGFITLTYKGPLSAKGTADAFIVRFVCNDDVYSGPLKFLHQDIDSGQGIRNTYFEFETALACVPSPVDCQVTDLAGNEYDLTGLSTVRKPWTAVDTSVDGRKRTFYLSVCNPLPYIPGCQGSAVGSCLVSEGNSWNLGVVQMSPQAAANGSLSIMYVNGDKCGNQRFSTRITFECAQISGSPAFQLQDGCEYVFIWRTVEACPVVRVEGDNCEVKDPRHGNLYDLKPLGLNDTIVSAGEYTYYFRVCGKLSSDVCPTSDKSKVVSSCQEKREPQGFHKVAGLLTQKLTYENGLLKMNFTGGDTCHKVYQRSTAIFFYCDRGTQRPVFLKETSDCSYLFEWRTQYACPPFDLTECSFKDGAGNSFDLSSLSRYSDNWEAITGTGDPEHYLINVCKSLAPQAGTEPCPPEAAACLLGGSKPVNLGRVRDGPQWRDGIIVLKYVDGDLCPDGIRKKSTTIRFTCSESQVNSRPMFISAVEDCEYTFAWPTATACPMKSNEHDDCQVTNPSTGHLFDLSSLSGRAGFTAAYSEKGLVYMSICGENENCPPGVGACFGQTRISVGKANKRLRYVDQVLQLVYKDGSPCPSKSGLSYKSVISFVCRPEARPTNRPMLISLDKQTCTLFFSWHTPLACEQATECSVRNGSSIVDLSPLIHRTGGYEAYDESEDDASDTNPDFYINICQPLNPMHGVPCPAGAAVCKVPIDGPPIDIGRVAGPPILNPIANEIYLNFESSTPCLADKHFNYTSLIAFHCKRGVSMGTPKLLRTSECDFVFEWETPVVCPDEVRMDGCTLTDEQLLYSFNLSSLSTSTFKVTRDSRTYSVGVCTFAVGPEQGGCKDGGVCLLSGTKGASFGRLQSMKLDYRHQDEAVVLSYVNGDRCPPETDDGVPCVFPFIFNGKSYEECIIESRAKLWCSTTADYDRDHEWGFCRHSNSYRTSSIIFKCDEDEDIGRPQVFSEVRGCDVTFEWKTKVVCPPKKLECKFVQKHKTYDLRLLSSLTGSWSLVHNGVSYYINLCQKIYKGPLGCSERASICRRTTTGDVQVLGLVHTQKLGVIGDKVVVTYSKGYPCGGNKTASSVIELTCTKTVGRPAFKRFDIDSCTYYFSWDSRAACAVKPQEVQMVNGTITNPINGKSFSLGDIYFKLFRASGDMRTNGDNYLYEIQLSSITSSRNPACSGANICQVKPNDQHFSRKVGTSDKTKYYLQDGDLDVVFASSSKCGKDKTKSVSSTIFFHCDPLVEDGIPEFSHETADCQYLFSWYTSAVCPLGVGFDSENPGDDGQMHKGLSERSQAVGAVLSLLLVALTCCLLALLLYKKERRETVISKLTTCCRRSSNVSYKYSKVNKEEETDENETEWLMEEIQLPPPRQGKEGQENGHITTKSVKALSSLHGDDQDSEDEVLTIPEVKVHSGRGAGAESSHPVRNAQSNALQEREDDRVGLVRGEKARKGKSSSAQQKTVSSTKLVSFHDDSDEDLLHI

Cell Uptake: 98
Cellular Uptake (Bioassay): 85% and 95% and 97%
Internalization: 83%
B1: purified recombinant human iduronate-2-sulfatase (I2S) produced in serum-free medium, P22304 26-550 (enzyme)
chain: SETQANSTTDALNVLLIIVDDLRPSLGCYGDKLVRSPNIDQLASHSLLFQNAFAQQAVCAPSRVSFLTGRRPDTTRLYDFNSYWRVHAGNFSTIPQYFKENGYVTMSVGKVFHPGISSNHTDDSPYSWSFPPYHPSSEKYENTKTCRGPDGELHANLLCPVDVLDVPEGTLPDKQSTEQAIQLLEKMKTSASPFFLAVGYHKPHIPFRYPKEFQKLYPLENITLAPDPEVPDGLPPVAYNPWMDIRQREDVQALNISVPYGPIPVDFQRKIRQSYFASVSYLDTQVGRLLSALDDLQLANSTIIAFTSDHGWALGEHGEWAKYSNFDVATHVPLIFYVPGRTASLPEAGEKLFPYLDPFDSASQLMEPGRQSMDLVELVSLFPTLAGLAGLQVPPRCPVPSFHVELCREGKNLLKHFRFRDLEEDPYLPGNPRELIAYSQYPRPSDIPQWNSDKPSLKDIKIMGYSIRTIDYRYTVWVGFNPDEFLANFSDIHAGELYFVDSDPLQDHNMYNDSQGGDLFQLLMP
modifications: here or on the partner: cysteine corresponding to Cys59 of mature human I2S (SEQ ID NO:1) converted to C-alpha-formylglycine (87-95% in Table 4, 94% in Table 13); glycans bearing sialic acid and mannose-6-phosphate
